Entries after “also recorded” stand apart in the source; their conditions may differ.
Biological target: T1, JAML D1 domain (Homo sapiens, UniProt Q86YT9)
T1 construct: made in house; host or cells: HEK293T
T1 sequence (Q86YT9 20-140): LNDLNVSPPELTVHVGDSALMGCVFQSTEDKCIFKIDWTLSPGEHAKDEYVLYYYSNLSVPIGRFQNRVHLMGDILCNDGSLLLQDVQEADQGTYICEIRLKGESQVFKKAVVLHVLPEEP
Test: Domain specificity ELISA on sJAML-His, sJAML.D1-Fc, sJAML.D2-Fc
Format: binding
Settings: sJAML.D2-Fc coated, FIG. 1B
Protocol: FIG. 1B. sJAML-His and purified soluble, mutant fragments of JAML, tagged with rabbit Fc (membrane distal Ig loop: sJAML.D1-Fc and membrane proximal Ig loop: sJAML.D2-Fc) were coated on Immulon II microtiter wells overnight at 4° C. After blocking and washing, antibodies were added to wells for 1 hour and the assay developed with HRP conjugated goat anti mouse Ig (H+L). After addition of ABTS, microtiter wells were analyzed in a microtiter plate reader at 405 nm wavelength. M3 is polyclonal mouse serum collected from the sJAML-His immunized mouse before the fusion. 9E10 anti Myc was used as control.
To determine the domain specificity of monoclonal antibodies, soluble full length JAML.D1D2-His (sJAML-His), truncated extracellular fragments: soluble membrane distal fragment JAML.D1-Fc (sJAML.D1-Fc), and soluble membrane proximal fragment JAML.D2-Fc (sJAML.D2-Fc), both tagged with rabbit Fc, were generated and tested for antibody binding. […] Polyclonal serum (M3) was collected from the immunized mouse prior the fusion and was used as the positive control in the binding assay.

B1: DW100: monoclonal anti-human JAML antibody (IgG1,κ), hybridoma ATCC PTA-13051; VH SEQ ID NO:19, VL SEQ ID NO:22 (antibody, V domains shown)
VH: DVQLVESGAELVRPGASKLSCKALAYTFTDYEMHWVKQTPVHGLEWIGIIHPGSGGTVYNQKFKGKATLTADKSSSTAYMELSSLTSEDSTVYYCTRRRYYGSSYNWYFDVWGAGN
VL: VLTQSPASLAASVGETVTITCRASENIYYSLAWYQQKQGKSPQLLIYNANSLEDGVPSRFSGSGSGTQYSLKINSMQPEDTATYFCEQTYDVPLTFGAGTKLEL
JAML domain bound: binds the D1 domain of JAML; also recorded: specifically binds JAML D1 domain

— US10465005B2, “JAML specific binding agents, antibodies, and uses related thereto” (Emory University, priority 2011, dated 2019)
